Measurements as given in US20060263331A1, “Therapeutic use of tumor necrosis factor-alpha mutein” (priority 2002, published 2006).

Key:
[1] = tested on: Malignant Lymphoma; test: Clinical monotherapy of rhTNFm1, malignant lymphoma; assay type: in vivo, human; settings: 71 patients
Text: (§1) Patients were selected based on the following criteria: i) measurable, objective tumor; ii) Karnofsky performance status (KPS)≧60; iii) age 18-75; iv) major organs in basically normal condition; v) no chemotherapy, radiotherapy and biologic therapy within the last month; vi) predicted ≧3 mon. survival; and vii) with patient's informed consent signed.
(§2) Patients were excluded based on the following criteria: i) with history of allergic reactions to TNF or its derivatives; ii) pregnant or lactating women; iii) major organs with obvious damages or malfunction; iv) in ≧38° C. fever; v) with obvious tendency to haemorrhage; vi) with history of hypo- or hypertension; vii) with serious albuminemia; and viii) with strong tendency of disobedience or resistance.
(§3) Patients were removed from the evaluation if any of the following conditions apply: i) treatment was not completed according to the protocol; ii) incomplete records; and iii) treatment using cancer therapies not in the protocol. However, patients who withdrew due to adverse reactions to the therapy were still included in the evaluation.
(§4) The results of the treatment of tumors were evaluated based the following criteria: i) complete response (CR)—complete disappearance of observable pathological changes for at least 4 weeks; ii) partial response (PR)—reduction by ≧50% in tumor size measured by the product of the maximum circular and vertical dimensions for at least 4 weeks; iii) minimum response (MR)—reduction by >25% but <50% in tumor size measured by the product of the maximum circular and vertical dimensions for at least 4 weeks; iv) stabilized (SD)—reduction by ≦25% but without increase by >25% in tumor size measured by the product of the maximum circular and vertical dimensions for at least 4 weeks; and progression (PD): increase by >25% in tumor size in one or more sites.
(§5) Patients rested on day 1 and 2. The treatment cycle was 3-4 weeks.
(§6) Table II summaries results of the treatment of patients with malignant lymphoma, classified according to Hodgkin's disease and non-Hodgkin's lymphoma. Within each of category of lymphoma, patients were further classified into two groups: chemo-naïve and chemo-refractory. The chemo-naïve patients were patients who had never been treated with any anti-cancer agent previously whereas chemo-refractory patients were ones who failed treatment with one or more anti-cancer agent.

[2] = tested on: Kidney Cancer; test: Clinical monotherapy of rhTNFm1, kidney cancer; assay type: in vivo, human; settings: 3 patients
Text: as §1, §2, §3, §4, §5

[3] = tested on: malignant pleural effusion or ascites; test: Clinical monotherapy of rhTNFm1, malignant pleural effusion or ascites (Total); assay type: in vivo, human; settings: 169 patients
Text: as §1, §2, §3
(§7) The results of the treatment of malignant pleural effusion (or hydrothorax) and ascites were evaluated based on a modified Millar standard (Millar J W, Hunfer A M, Home N W. (1980) “Inerapleural immunotherapy with CP”, in Recurrent Malignant Pleural Effusions. Thorax 35:856): i) complete response (CR)—complete disappearance of pleural effusion or ascites for at least 1 month; ii) partial response (PR)—reduction by at least 1 grade for at least 1 month; iii) minimum response (MR)—reduction in the levels of pleural effusion or ascites within the same grade for at least 1 month; iv) stabilized (SD)—levels of pleural effusion or ascites maintained within the same grade for at least 1 month; and progressed (PD): increase in the levels of pleural effusion or ascites compared with those before the treatment.
as §5
(§8) It is noted that Table III includes the patients who withdrew due to […], including 1 with malignant pleural effusion and 1 with malignant ascites. For patients with malignant ascites, rhTNFm1 was reconstituted in 30-50 ml normal saline and administered intraperitoneally (i.p.) at 2,000,000-3,000,000 units each time, 1-2 times a week, with 2-3 weeks as one treatment cycle. Optionally, rhTNFm1 was administered to the patients by alternating between i.p. injection and i.v. injection (at 600,000-900,000 unit/m^2 per day continuing for 28 days as one treatment cycle). On the day when rhTNFm1 was administered via i.p. injection, administration of rhTNFm1 via i.v. injection was stopped.

[4] = tested on: non-Hodgkin's lymphoma; test: Clinical monotherapy of rhTNFm1, non-Hodgkin's lymphoma; assay type: in vivo, human; settings: for Response Rate (%) CR / Response Rate (%) CR + PR / Response Rate (%) PR / Efficacy CR / Efficacy MR / Efficacy PD / Efficacy PR / Efficacy SD: Non-Hodgkin's, monotherapy; for Efficacy CR / Efficacy MR / Efficacy PD / Efficacy PR / Efficacy SD: patient count
Text: as §1, §2, §3, §4, §5, §6

[5] = tested on: malignant pleural effusion; test: Clinical monotherapy of rhTNFm1, malignant pleural effusion; assay type: in vivo, human; settings: 141 patients
Text: as §1, §2, §3, §7, §5, §8

[6] = in vivo
Method: Patients with the following malignancy: malignant lymphoma, lung cancer, melanoma, breast cancer, liver cancer, kidney cancer, colon cancer, pleural effusion and ascites were treated with a monotherapy of the recombinant protein rhTNFm1 described above.
Patients were treated with rhTNFm1 at 600,000-900,000 unit/m^2 (about 1-50 μg/m^2 depending on the specific bioactivity of a particular lot) per day, 5 times a week (day 3-7) via i.v. injection. Patients rested on day 1 and 2. The treatment cycle was 3-4 weeks.

[7] = Chemo-naïve Grade I & II, 4 patients
[8] = Chemo-naïve Grade III & IV, 5 patients

B1: rhTNFm1: Recombinant human TNF-α mutant 1 expressed in E. coli; SEQ ID NO: 3 with N-terminal methionine (FIG. 1, 2) (protein)
chain: MRKRKPVAHVVANPQAEGQLQWLNRRANALLANGVELRDNQLVVPSEGLYLIYSQVLFKGQGCPSTHVLLTHTISRIAVSYQTKVNLLSAIKSPCQRETPEGAEAKPWYEPIYLGGVFQLEKGDRLSAEINRPDYLDFAESGQVYFGIIAQ
modifications: rhTNFm1 with Met
- Response Rate (%) CR [1]: 2.82%
- Response Rate (%) CR + PR [1]: 28.17%
- Response Rate (%) PR [1]: 25.35%
- Efficacy CR ([1]; patient count): 2
- Efficacy MR ([1]; patient count): 8
- Efficacy PD ([1]; patient count): 11
- Efficacy PR ([1]; patient count): 18
- Efficacy SD ([1]; patient count): 32
- Response Rate (%) CR [2]: 0.00%
- Response Rate (%) CR + PR [2]: 0.00%
- Response Rate (%) PR [2]: 0.00%
- Efficacy CR ([2]; patient count): 0
- Efficacy MR ([2]; patient count): 1
- Efficacy PD ([2]; patient count): 1
- Efficacy PR ([2]; patient count): 0
- Efficacy SD ([2]; patient count): 1
- Response Rate (%) CR [3]: 8.88%
- Response Rate (%) CR + PR [3]: 69.23%
- Response Rate (%) PR [3]: 60.36%
- Efficacy CR ([3]; patient count): 15
- Efficacy MR ([3]; patient count): 12
- Efficacy PD ([3]; patient count): 2
- Efficacy PR ([3]; patient count): 102
- Efficacy SD ([3]; patient count): 38
- Response Rate (%) CR [4, 7]: 0%
- Response Rate (%) CR + PR [4, 7]: 75%
- Response Rate (%) PR [4, 7]: 75%
- Response Rate (%) CR [4, 8]: 0%
- Response Rate (%) CR + PR [4, 8]: 60%
- Response Rate (%) PR [4, 8]: 60%
- Response Rate (%) CR ([4]; Chemo-naïve Total, 9 patients): 0%
- Response Rate (%) CR + PR ([4]; Chemo-naïve Total, 9 patients): 66.67%
- Response Rate (%) PR ([4]; Chemo-naïve Total, 9 patients): 66.67%
- Response Rate (%) CR ([4]; Chemo-refractory, 56 patients): 3.57%
- Response Rate (%) CR + PR ([4]; Chemo-refractory, 56 patients): 25%
- Response Rate (%) PR ([4]; Chemo-refractory, 56 patients): 21.43%
- quality of life score after the treatment ([4]; one NHL patient, before 50): 60
- KPS after the treatment ([4]; one NHL patient, before 90): 90
- Efficacy CR [4, 7]: 0
- Efficacy MR [4, 7]: 1
- Efficacy PD [4, 7]: 0
- Efficacy PR [4, 7]: 3
- Efficacy SD [4, 7]: 0
- Efficacy CR [4, 8]: 0
- Efficacy MR [4, 8]: 0
- Efficacy PD [4, 8]: 0
- Efficacy PR [4, 8]: 3
- Efficacy SD [4, 8]: 2
- Efficacy CR ([4]; Chemo-naïve Total, 9 patients): 0
- Efficacy MR ([4]; Chemo-naïve Total, 9 patients): 1
- Efficacy PD ([4]; Chemo-naïve Total, 9 patients): 0
- Efficacy PR ([4]; Chemo-naïve Total, 9 patients): 6
- Efficacy SD ([4]; Chemo-naïve Total, 9 patients): 2
- Efficacy MR ([4]; Chemo-refractory, 56 patients): 7
- Efficacy PD ([4]; Chemo-refractory, 56 patients): 10
- Efficacy PR ([4]; Chemo-refractory, 56 patients): 12
- Efficacy SD ([4]; Chemo-refractory, 56 patients): 25
- Response Rate (%) CR [5]: 9.93%
- Response Rate (%) PR [5]: 64.54%
- Efficacy CR ([5]; patient count): 14
- Efficacy MR ([5]; patient count): 9
- Efficacy PD ([5]; patient count): 1
- Efficacy PR ([5]; patient count): 91
- Efficacy SD ([5]; patient count): 26
- adverse effects compared to wild type TNF-α [6]: much fewer and weaker adverse effects
- duration of chill [6]: ≤ 30 min
- duration of chills [6]: no more than half an hour
- duration of fever [6]: no more than half an hour
- fever grade during the treatment [6]: Grade I
- highest body temperature during the treatment [6]: 37.2 °C
- patients with 3rd degree fever [6]: two
- patients with chills [6]: 23%
- patients with fever below the 2nd degree [6]: About 38%
- patients with mild chills [6]: 11%
- patients with slight chills [6]: 12%
- time of occurrence of chills after the administration [6]: ≤ 30 min
- time of occurrence of fever post administration [6]: 1 to 2 h
- adverse reactions during the treatment ([6]; iv): slight asthenia
